Measurements as given in article PMC5268738, “A sequential multi-target Mps1 phosphorylation cascade promotes spindle checkpoint signaling” (eLife, 2017).

T1: C-terminal domain (CTD) of scMad1 (Saccharomyces cerevisiae, UniProt P40957)
T1 sequence (P40957 633-749 limits assumed): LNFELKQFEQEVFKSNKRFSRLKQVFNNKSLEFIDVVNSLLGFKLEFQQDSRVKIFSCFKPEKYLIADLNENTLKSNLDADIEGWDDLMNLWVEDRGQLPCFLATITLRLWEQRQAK


Legend:
[1] = molecular target: T1, C-terminal domain (CTD) of scMad1; assay: ITC, scBub1 fragment or phospho-peptides with scMad1 CTD; type: binding; conditions: 20°C, 25 mM HEPES pH 7.5, 150 mM NaCl, scMad1 20 µM in cell, scBub1 phospho-peptide or fragment 300 µM injected, read-out: Kd, dissociation constant
Method: (§1) All isothermal titration calorimetry (ITC) assays were performed with a MicroCal Omega ITC200 titration calorimeter (GE Life Sciences) at 20°C. Recombinant scMad1^CTD protein or scMad1–scMad2 complexes were dialyzed into the HEPES Buffer I (25 mM HEPES, pH 7.5, 150 mM NaCl). Recombinant human Mad1^CTD protein was dialyzed into the HEPES Buffer II (25 mM HEPES, pH 7.5, 50 mM NaCl). For each titration, 300 μl of scMad1 proteins (20 µM) or human Mad1 (50 µM) were added to the calorimeter cell. The scBub1 phospho-peptides or purified scMps1-phosphorylated scBub1_449–530 fragment (300 µM) in the HEPES Buffer I or the human Bub1 phospho-peptides (500 µM) in the HEPES Buffer II were injected with an injection syringe in 19 2-μl portions. The raw data were processed and fitted with the NITPIC software package ([Keller et al., 2012]).

[2] = molecular target: scMad1^E–scMad2 complex; assay: ITC, Mps1-phosphorylated scBub1 fragment with scMad1^E–scMad2 complex; type: binding, Saccharomyces cerevisiae; conditions: 20°C, 25 mM HEPES pH 7.5, 150 mM NaCl, scMad1 proteins 20 µM in cell, scBub1 fragment 300 µM injected, read-out: Kd, dissociation constant (affinity)
Method: as §1

[3] = test system: scMad1^E–scMad2 complex; assay: in vitro pull-down of scMad1^E–scMad2 by GST-scBub1 fragments; type: binding, Saccharomyces cerevisiae; conditions: scBub1 fragments alone or co-expressed with scMps1 kinase domain
Method: Expression of GST-BubR1^N (residues 1–370), GST-Mad2, GST-scBub1 fragments, GST-Mad1, and GST-scMad1 fragments in BL21(DE3) was induced by 0.1 mM isopropyl β-D-1-thiogalactopyranoside (IPTG) at 16°C overnight, after the OD600 reached 0.8. Mad1 and scMad1 fragments (Mad1^E) containing the Mad2-interacting motif (MIM) were co-expressed with Mad2 and scMad2, respectively. Fragments of scBub1 were co-expressed with His6-scMps1 (the kinase domain; residues 440–720). […] After sonication, lysates were cleared by centrifugation at 4°C. Supernatants were filtered by 0.45 µm filter and incubated with pre-equilibrated Glutathione Sepharose 4B beads (GE Healthcare). Protein-bound beads were washed with 40 volumes of the wash buffer I. The proteins were then eluted with reduced glutathione (Sigma) or cleaved with the PreScission protease. Eluates were dialyzed to the QA buffer (25 mM Tris-HCl, pH 8.0, 20 mM NaCl, 3 mM DTT), loaded onto a Resource Q column (GE Healthcare), and then eluted with the QB buffer (25 mM Tris-HCl, pH 8.0, 1 M NaCl, 3 mM DTT). Peak fractions were pooled and further purified with a Superdex 200 size exclusion column (GE Healthcare). […]
Recombinant bait proteins or bacteria lysates containing bait proteins were incubated with the appropriate affinity beads. […] The bead-bound proteins were analyzed by Coomassie blue staining or Western blotting. […]

Molecule	Kd [1] [nM]	Kd [2] [nM]	binding to scMad1^E–scMad2 (in words) [3]
Phosphorylated scBub1449–530: Mps1-phosphorylated scBub1 fragment containing the CM (protein, phosphothreonine at 453, phosphothreonine at 455, phosphoserine at 458 (mass spectrometry; co-expressed with scMps1); left off: GST, N-terminal, state not stated, Mps1-phosphorylated scBub1 fragment containing the CM) SRSPTVTAFSKDAINEVFSMFNQHYSTPGALLDGDDTTTSKFNVFENFTQEFTAKNIEDLTEVKDPKQETVSQQTTSTNETN	2930	2210	
scBub1_369–608: scBub1 fragment co-expressed with the kinase domain of scMps1 in bacteria (protein, left off: GST, N-terminal, kept, scBub1 fragment co-expressed with the kinase domain of scMps1 in bacteria) RKLDVLVERRQDLPSSQPPVVPKSTRIEVFKDDDNPSQSTHHKNTQVQVQTTTSILPLKPVVDGNLAHETPVKPSLTSNASRSPTVTAFSKDAINEVFSMFNQHYSTPGALLDGDDTTTSKFNVFENFTQEFTAKNIEDLTEVKDPKQETVSQQTTSTNETNDRYERLSNSSTRPEKADYMTPIKETTETDVVPIIQTPKEQIRTEDKKSGDNTETQTQLTSTTIQSSPFLTQPEPQAEK			only the phosphorylated scBub1 bound to the scMad1^E–scMad2 complex
